The target in test [1] is T1, recombinant, soluble human ASGR-1 (human, UniProt P07306 62-291).
T1 construct: biotinylated in the binning assay; also called soluble huASGR-1; Soluble ASGR-1 (Amgen)
T1 sequence: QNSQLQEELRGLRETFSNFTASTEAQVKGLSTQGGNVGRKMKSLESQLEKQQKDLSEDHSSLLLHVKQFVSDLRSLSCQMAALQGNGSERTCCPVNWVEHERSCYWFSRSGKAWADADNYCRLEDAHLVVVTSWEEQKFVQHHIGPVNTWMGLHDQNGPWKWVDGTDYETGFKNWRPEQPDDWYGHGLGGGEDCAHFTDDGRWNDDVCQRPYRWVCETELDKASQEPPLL
In words: Octet BLI dissociation, pH 5.6 minus calcium. The essentials: (§1)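 Antibodies were captured on anti-human Fc biosensors, and soluble ASGR-1 (6 ug/ml) was associated for 2 min in Tris buffer containing 1 mM CaCl2 at pH 7.4, followed by 10 min dissociation under each test condition. The signal at the end of association was set as 100%. Percent ASGR-1 still bound after 1 min of dissociation was compared with the pH 7.4 plus calcium control, and >10% extra dissociation was scored as sensitive.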
In general terms: BLI is a label-free optical method that tracks binding on a fibre tip over time.

Test [2] concerns the target T1, recombinant, soluble human ASGR-1. The test is described as follows: Octet BLI dissociation, pH 7.4 minus calcium. A digest of the protocol:
as §1

The target is the same in test [3]. The test is described as follows: Octet BLI dissociation, pH 5.6 plus calcium. A digest of the protocol:
as §1

B1: 192H10 (antibody, V domains shown)
VH: QVQLVESGGGVVQPGRSLRLSCAASGFTFSSYGMHWVRQAPGKGLEWVAVIWYDGSNKNYADSVKGRFTISRDNSKNTLYLQMNSLRAEDTAMYYCARDQGVGYDGLDVWGQGTSVTVSS
VL: DIQMTQSPSSLSASVGDRVTITCRASQGIGKYLAWFQQKPGKAPKSLIYAASSLQSGVPSKFSGSGYGTDFTLTISSLQPENFATYYCQQYSTYPLTFGGGTKVEIK
notes: hybridoma mAb
For B1, the “% Change Compared to pH 7.4 + Calcium” value in test [1] was -4%; in test [2] it was 0%; in test [3], -5%.

B2: 192E4 (antibody, V domains shown)
VH: QVQLVESGGGVVQPGRSLRLSCAASGFTFSSYGMHWVRQAPGKGLEWVAVIWYDGSNKNYVDSVRGRFTISRDNSKNTLYLQMNSLRAEDTAVYYCARDRSVGYDGMDVWGQGTTVTVSS
VL: DIQMTQSPSSLSASVGDRVTITCRASQGIGNYLAWFQQKPGKAPKSLIYVVSSLQSGVPSRFSGSGSGTDFTLTISSLQPEDFATYYCQRYDTYPFTFGPGTKVDIK
notes: hybridoma mAb
With B2, the figures for the “% Change Compared to pH 7.4 + Calcium” value in test [1], in test [2] and in test [3] were -8%, -2% and -9%, respectively.

B3: 194B7 (antibody, V domains shown)
VH: QVQLVESGGGVVQPGRSLRLSCAASGFTFSSYGMHWVRQAPGKGLEWVAVIWYDGSNKNYADSVKGRFTISRDNSKNTLYLQMNSLRAEDTAVYYCARDRSKGYDGMDVWGQGTTVTVSS
VL: DIQMTQSPSSLSASVGDRVTITCRASQGISKYLAWFQQKPGKAPKSLIYGASRLQSGVPSKFSGSGSGTDFTLTISSLQPEDFATYYCQHYLNYPLTFGQGTRLEIK
notes: hybridoma mAb
With B3, the “% Change Compared to pH 7.4 + Calcium” value in test [1] is -4%; in test [2], 1%; in test [3], -4%.

B4: 190F12 (antibody, V domains shown)
VH: QVQLVESGGGVVQPGRSLRLSCAASGFTFRNYGMHWVRQAPGKGLEWVAVIWFDGSNDYYADSVKGRFTISRDNSKNTLSLQMNSLRAEDTAVYYCARDRSVGYDGLDVWGQGTTVTVSS
VL: DIQMTQSPSSLSASVGDRVTITCRASQGIGKYLAWFQQKPGKAPKSLIYAASSLQSGVPSKFSGSGSGTDFTLTISSLQPDDFATYYCQRYDTYPFTFGPGTKVDIK
notes: hybridoma mAb
Consider B4, for which the “% Change Compared to pH 7.4 + Calcium” value is -6% in test [1], -1% in test [2] and -6% in test [3].

B5: 197G3 (antibody, V domains shown)
VH: QVQLVESGGGVVQPGRSLRLSCVASGFTFSSHGMHWVRQAPGKGLEWVAVIWYDGSNKNYADSVKGRFTISRDNSKNTLYLQMNSLRAEDTAVYYCARDPSVGYDGMDVWGQGTTVTVSS
VL: DIQMTQSPSSLSASVGDRVTITCRASQGIGNHLAWFQQKPGKAPKSLIYAASSLQSGVPSKFSGSRSGTDFSLTISSLQPEDFATYYCQQYSNYPVTFGPGTKVDIK
notes: hybridoma mAb
With B5, the “% Change Compared to pH 7.4 + Calcium” value in test [1] was -3%; in test [2], 2%; in test [3] it was -3%.

B6: 193C7 (antibody, V domains shown)
VH: QVQLVESGGGVVQPGRSLRLSCAASGFTFSSYGMHWVRQAPGKGLEWVAVIWYDGSNKNYADSVKGRFTISRDNSKNTLYLQMNSLRAEDTAMYYCARDQGVGYDGLDVWGQGTSVTVSS
VL: DIQMTQSPSSLSASVGDRVTITCRASQGIGKYLAWFQQKPGKAPKSLIYAASSLQSGVPSKFSGSGSGTDFTLTISSLQPEDFATYYCQQYSTYPLTFGGGTKVEIK
notes: hybridoma mAb
As to B6, the figures for the “% Change Compared to pH 7.4 + Calcium” value in test [1], in test [2] and in test [3] were -8%, -1% and -8%, respectively.

B7: 190H9 (antibody, V domains shown)
VH: QVQLVESGGGVVQPGRSLRLSCAASGFTFRNYGMHWVRQAPGKGLEWVAVIWFDGSNDYYADSVKGRFTISRDNSKNTLSLQMNSLRAEDTAVYYCARDRSVGYDGLDVWGQGTTVTVSS
VL: DIQMTQSPSSLSASVGDRVTITCRASQGIGKYLAWFQQKPGKALKSLIYAASSLQSGVPSKFSGSGSGTDFTLTISSLQPDDFATYYCQRYDTYPFTFGPGTKVDIK
notes: hybridoma mAb
On to B7, for which the “% Change Compared to pH 7.4 + Calcium” value in test [1] was -7%; in test [2], -1%; in test [3], -6%.

B8: 197F2 (antibody, V domains shown)
VH: QVQLVESGGGVVQPGRSLRLSCAASGFTFSSYGMHWVRQAPGKGLEWVAVIWYDGSNKNYADSVKGRFTISRDNSKNTLYLQMNSLRAEDTAVYYCARDQGVGYDGLDVWGQGTTVTVSS
VL: DIQMIQSPSSLSASVGDRVTITCRTSQGIGNYLAWFQQKPGKAPKSLLYKTSSLQSGVPSKFSGSGSGTDFTLTISSLQPEDFATYYFQQYITYPLTFGGGTKVEIK
notes: hybridoma mAb
Regarding B8, the figures for the “% Change Compared to pH 7.4 + Calcium” value in test [1], in test [2] and in test [3] were -6%, 0% and -6%, respectively.

B9: 192C10 (antibody, V domains shown)
VH: QVQLVESGGGVVQPGRSLRLSCASSGFTFRNYGMHWVRQAPGKGLKWVAVIWFDGSNDYYADSVKGRFTISRDNSKNTLSLQMNSLRAEDTAVYYCARDRSVGYDGLDVWGQGTTVTVSS
VL: DIQMTQSPSSLSASVGDRVTITCRASQGIGKYLAWFQQKPGKAPKSLIYAASSLQSGVPSKFSGSGSGTDFTLTISSLQPDDFATYYCQRYDTYPFTFGPGTKVDFK
notes: hybridoma mAb
Take B9: the “% Change Compared to pH 7.4 + Calcium” value in test [1] is -6%; in test [2], -1%; in test [3], -6%.

B10: 204G6 (antibody, V domains shown)
VH: QVQLVESGGGVVQPGRSLRLSCTASGFTFSSYGMHWVRQAPGKGLEWVAVIWYDGSNKNYADSVKGRFTISRDNSKNTLYLQMNSLRAEDTAVYYCARDRGVGYDGMDVWGQGTTVTVSS
VL: DIRMTQSPSSLSASVGDRITITCRTSQGIGNYLAWFQQKPGKAPKSLIYAASSLQSGVPSRFSGSGSGTDFTLTISSLQPEDFATYYCQHYLSYPLTFGGGTKVEIK
notes: hybridoma mAb
In the case of B10, the figures for the “% Change Compared to pH 7.4 + Calcium” value in test [1], in test [2] and in test [3] were -10%, -5% and -11%, respectively.

B11: 197B6 (antibody, V domains shown)
VH: QVQLVESGGGVVQPGRSLRLSCAASGFTFSSYGMHWVRQAPGKGLEWVAVIWYDGSNKNYADSVKGRFTISRDNSKNMLYLQMNSLRAEDTAMYYCARDQGVGYDGLDVWGQGTSVTVSS
VL: DIQMTQSPSSLSASVGDRVTITCRASQGIGKYLAWFQQKPGKAPKSLIYGASSLQSGVPSKFSGSGSGTDFTLTISSLQPENFATYYCQQYSTYPLTFGGGTKVEIK
notes: hybridoma mAb
For B11, the “% Change Compared to pH 7.4 + Calcium” value in test [1] is -7%; in test [2] it was -1%; in test [3] it was -8%.

B12: 196C7 (antibody, V domains shown)
VH: QVQLVESGGGVVQPGRSLRLSCAASGFTFSSYGMHWVRQAPGKGLEWVAVIWYDGSNEHYADSVKGRFTISRDNSKNTLYLQMNSLRAEDTAVYYCARDRGVGYYGLDVWGQGTTVTVSS
VL: DIQMTQSPSSLSASVGDRVTITCRANQAISNYLAWFQQKPGKAPKSLIYAASSLQSGVPSKFSGSGSGTDFTLTISSLQPEDFATYYCQHYLTYPLTFGGGTKVEIK
notes: hybridoma mAb
Regarding B12, the “% Change Compared to pH 7.4 + Calcium” value was -12% in test [1], -8% in test [2] and -12% in test [3].

B13: 198G3 (antibody, V domains shown)
VH: QVQLVESGGGVVQPGRSLKLSCAASGFTFSTYGMHWVRQAPGKGLEWVAVIWYDGTNKNYADSVKGRFTISRDNSKNTLCLQMNSLRAEDTAVYYCARDQGVGYDGLDVWGQGTTVTVSS
VL: DIQMAQSPSSLSASVGDRVTITCRTSQGIGKYLAWFQQKPGKAPKSLLYKASSLQGGVPSKFSGSGSGTDFTLTISSLQPEDFATYYCQQYMTYPLTFGGGTKVEIK
notes: hybridoma mAb
B13: the “% Change Compared to pH 7.4 + Calcium” value is -4% in test [1], -1% in test [2] and -4% in test [3].

B14: 197E11 (antibody, V domains shown)
VH: QVQLVESGGGVVQPGRSLRLSCAASGFTFRNYGMHWVRQAPGKGLEWVAVIWFDGSNDYYADSVKGRFTISRDNSKNTLSLQMNSLRAEDTAVYYCARDRSVGYDGLDVWGQGTTVTVSS
VL: DIQMTQSPSSLSASVGDRVTITCRASQGINKYLSWFQQKPGKAPKSLIYAASSVQSGVPSKFSGSGSGTDFTLTISRLQPDDFATYYGQRYDTYPFTFGPGTKVDIK
notes: hybridoma mAb
As to B14, the “% Change Compared to pH 7.4 + Calcium” value in test [1] was -4%; in test [2] it was -1%; in test [3], -5%.

B15: 194C1 (antibody, V domains shown)
VH: QVQLVESGGGVVQPGRSLRLSCAASGFTFSSYGMHWVRQAPGKGLEWVAVIWYDGSNEHYADSVKGRFTISRDNSKNTLYLQMNSLRAEDTAVYYCARNRGVGYYGLDVWGQGTTVTVSS
VL: DIQMTQSPSSLSASVGDRVTITCRASQGISNYLAWFQQKPGKAPKSLIYAASSLQSGVPSKFSGSGSGTDFTLTISSLQPEDFATYYCLHYLTYPLTFGGGTKVEIK
notes: hybridoma mAb
Take B15: the results for the “% Change Compared to pH 7.4 + Calcium” value in test [1], in test [2] and in test [3] were -8%, -7% and -12%, respectively.

The values are drawn from patent publication US20190248902A1 (published 2019).
